Molecular target: recombinant biotinylated HIP1 protein (UniProt O00291)
Experiment: SPR

UniProt O00291, sequence (O00291 whole entry): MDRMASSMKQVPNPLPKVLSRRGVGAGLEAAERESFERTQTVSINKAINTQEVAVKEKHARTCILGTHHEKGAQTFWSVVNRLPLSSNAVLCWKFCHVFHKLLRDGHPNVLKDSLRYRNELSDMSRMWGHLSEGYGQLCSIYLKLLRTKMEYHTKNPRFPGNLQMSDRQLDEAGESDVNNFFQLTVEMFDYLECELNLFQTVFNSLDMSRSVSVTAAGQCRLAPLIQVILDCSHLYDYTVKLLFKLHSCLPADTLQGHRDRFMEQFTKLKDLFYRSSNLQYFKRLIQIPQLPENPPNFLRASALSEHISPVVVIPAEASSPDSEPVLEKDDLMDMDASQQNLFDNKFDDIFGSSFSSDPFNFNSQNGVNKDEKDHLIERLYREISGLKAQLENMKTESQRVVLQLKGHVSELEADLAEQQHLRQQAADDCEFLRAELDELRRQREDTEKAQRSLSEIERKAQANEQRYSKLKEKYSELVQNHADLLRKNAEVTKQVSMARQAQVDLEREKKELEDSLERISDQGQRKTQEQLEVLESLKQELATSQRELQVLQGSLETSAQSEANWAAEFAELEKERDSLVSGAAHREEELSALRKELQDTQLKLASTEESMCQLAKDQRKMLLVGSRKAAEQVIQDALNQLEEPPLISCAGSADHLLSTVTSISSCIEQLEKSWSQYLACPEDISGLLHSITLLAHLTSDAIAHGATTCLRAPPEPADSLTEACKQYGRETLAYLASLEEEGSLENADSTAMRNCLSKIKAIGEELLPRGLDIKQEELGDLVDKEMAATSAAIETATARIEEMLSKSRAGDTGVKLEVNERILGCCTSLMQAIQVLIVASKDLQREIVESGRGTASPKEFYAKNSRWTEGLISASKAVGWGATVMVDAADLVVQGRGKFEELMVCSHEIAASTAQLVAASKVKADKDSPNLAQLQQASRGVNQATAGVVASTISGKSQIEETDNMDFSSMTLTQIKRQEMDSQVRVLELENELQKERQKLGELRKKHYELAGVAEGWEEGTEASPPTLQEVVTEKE

In order of rising Kd:
1. K48/K63-linked branched Ub3 (SPR analyte) (from UniProt P0CG48)  0.07 µM
2. K63-linked Ub3 (SPR analyte) (from UniProt P0CG48)  1.55 µM
3. K63-linked Ub2 (SPR analyte) (from UniProt P0CG48)  1.89 µM
4. K48-linked Ub3 (SPR analyte) (from UniProt P0CG48)  66.2 µM
5. K48-linked Ub2 (SPR analyte) (from UniProt P0CG48)  137 µM
6. mono Ub (SPR analyte) (from UniProt P0CG48 1-76) (natural protein)  197 µM

— publication doi:10.1101/2024.01.08.574586
